Source: patent US20250250360A1 (CCBIOTECH, published 2025)

Molecular target: T1, sulfatase 1 (SULF1) antigen
T1 construct: also called antigen peptide
T1 peptide: CNPRPKNLDVGNKDGGSYD
Test: indirect ELISA, antigen coated on plate, HRP-labeled secondary antibody, A450 nm
From the text: This embodiment is directed to two antibodies (anti-GALNS specific antibody and anti-SULF1 specific antibody) and analyzes their specificity to the target proteins under different concentrations of antigen. The indirect ELISA detection method was used to conduct antibody specificity analysis, compare the specificity performance of antibodies to different concentrations of antigens, and BSA was used as the background control group for evaluation. The antigen was coated on a 96-well ELISA plate, the test antibody and the HRP-labeled secondary antibody were added for reaction, and the absorbance value was measured using a 450 nm wavelength microplate reader.

- binding result: binds
B1: anti-sulfatase 1 (SULF1) specific antibody (antibody, V domains shown)
VH: EVKLQESGAELVKPGASVKMSCKASGYTFTSYWMHWVKQRPGQGLEWIGTIDPSDSYTSYNQKFKGKATLTVDTSSSTAYMQLSSLTSEDSAVYYCTRGEYGNAMDYWGQGTSVTVSS
VL: DIVLTQTPSYLAASPGETITINCRASKSISKYLAWYQEKPGKTNKLLIYSGSTLQSGIPSRFSGSGSGTDFTLTISSLEPEDFAMYYCQQHNEYPYTFGGGTKLEIKR
notes: also called anti-SULF1 specific antibody; anti-Sulf1 specific antibody
